# From publication PMC2886590 (Journal of molecular biology, 2010)
# Where no end group is shown, it is not given here.
# B1: H3K4me1 peptide (12-mer histone tail peptide) (peptide)
# chain: ARTK(Me)QTARKSTG
# B2: H3K4me2 peptide (12-mer histone tail peptide) (peptide)
# chain: ARTK(Me2)QTARKSTG
# Molecular target: MLL PHD3 finger (residues 1565-1627), GST cleaved (human, UniProt Q03164 1565-1627)
# Assay: other fluorescence titration
# Chain of MLL PHD3 finger (residues 1565-1627), GST cleaved (Q03164 1565-1627): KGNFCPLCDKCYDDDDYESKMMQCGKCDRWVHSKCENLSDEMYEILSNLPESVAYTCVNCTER
binder,measurement,value
B1,fold lower affinity than for H3K4me3,53 fold
B2,fold lower affinity than for H3K4me3,8 fold
